The target of assay [1] is T1, human CD33 on primary human monocyte-derived dendritic cells (human, UniProt P20138 18-364). Briefly: cell-based or functional assay.
Assay [2] has as its target T1, human CD33 on primary human …. Briefly: cell-based or functional assay. This is another data set of the same source.
For assay [3], the target named is T2, human CD33 (human, UniProt P20138 18-259, limits assumed).
T2 construct: Human CD33 immobilized on the BLI sensor tip or the BIAcore C1 chip; also called Siglec-3
T2 sequence (P20138 18-259 limits assumed): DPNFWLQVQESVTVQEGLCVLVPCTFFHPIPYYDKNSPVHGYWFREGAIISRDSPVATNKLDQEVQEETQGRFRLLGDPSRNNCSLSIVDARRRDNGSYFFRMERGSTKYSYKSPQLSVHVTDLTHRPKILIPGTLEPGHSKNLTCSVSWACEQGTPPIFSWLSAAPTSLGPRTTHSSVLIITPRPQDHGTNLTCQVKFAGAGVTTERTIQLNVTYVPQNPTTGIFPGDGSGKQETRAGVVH
Nature of the assay: BLI (ForteBio), Fab 100 nM on immobilized CD33. As to the method:
(§1) The affinities (KD) of the humanized antibodies for human CD33 were measured for each antibody by BioLayer Interferometry in a ForteBio assay according to standard techniques (Estep et al. (2013) MAbs 5(2): 270-8). […] The assay was carried out at room temperature.

Assay [4] has as its target T2, human CD33. Briefly: BLI (ForteBio), Fab 100 nM on immobilized CD33. As to the method: as §1
The affinities of AB-H14 and its affinity-matured variants (Table 15) and AB-H63 and its affinity-matured variants (Table 16), for human CD33 were measured by Fortebio assay according to the method described in Example 1 above.
This is another data set of the same source. A general note: In BLI a coated tip is dipped into the sample, and binding shifts an interference pattern.

Assay [5] concerns the target T1, human CD33 on primary human …. Briefly: cell-based or functional assay. The source holds these as a separate data set.
The target is the same in assay [6]. Briefly: cell-based or functional assay. The source holds these as a separate data set.
For assay [7] the target is unchanged. Briefly: cell-based or functional assay. The source holds these as a separate data set.
The target in assay [8] is T2, human CD33. Briefly: SPR (BIAcore), Fab over CD33 on C1 chip. The procedure:
(§2) The affinity parameters for 10 of the 88 humanized antibodies (AB-H1, AB-H3, AB-H6, AB-H11, AB-H22, AB-H24, AB-H26, AB-H63, AB-H64, and AB-H71) were measured in a separate experiment by a more sensitive technique, surface plasmon resonance (BIAcore), and compared to Chimeric Ab and Chimeric Ab #2. BIAcore measurements were performed as follows: human CD33 was immobilized on the surface of a C1 chip, and Fabs were injected for 300 s to monitor association, followed by a 900 s flow in running buffer to monitor dissociation. The Fabs were measured at 5 concentrations: a high concentration of 27 nM and 3-fold serial dilutions.
For orientation: SPR reads the build-up and loss of mass on a sensor chip optically.

Assay [9] concerns the target T2, human CD33. Briefly: SPR (BIAcore), Fab over CD33 on C1 chip. The procedure: as §2
In a separate experiment, as determined by the more sensitive BIAcore technique, affinity parameters of affinity matured antibodies derived from the humanized antibody AB-H64 were measured and were directly compared to that of the Chimeric Ab, according to the method described in Example 1 above.
The source holds these as a separate data set.

Assay [10] has as its target T2, human CD33. Briefly: BLI (ForteBio), Fab 100 nM on immobilized CD33. The procedure: as §1
The affinities of AB-H64 and its variants (Table 5) for human CD33 were measured by Fortebio assay according to the method described in Example 1 above.
This is another data set of the same source.

For assay [11], the target named is T1, human CD33 on primary human …. Briefly: cell-based or functional assay. The source holds these as a separate data set.
The target of assay [12] is T2, human CD33. Nature of the assay: BLI (ForteBio), Fab 100 nM on immobilized CD33. The procedure: as §1
The affinity parameters of two of the antibodies, 64.1.2 and 64.1.8, were measured in a separate experiment by BIAcore, where they were directly compared to the parental antibody, AB-64.1, the parental humanized antibody, AB-H64, and the Chimeric Ab.
The source holds these as a separate data set.

Assay [13] concerns the target T2, human CD33. Briefly: ligand-blocking red blood cell solid adhesion assay: antibody pre-incubated on plate-bound CD33-Fc, then binding of red blood cells (sialic acid-containing CD33 ligands) read as peroxidase activity (TMB, 450 nm), relative to no antibody; blocked ligand: CD33 ligands on red blood cells. As to the method: The affinity matured antibody, AB-64.1 and two of its variants, AB-64.1.2 and AB-64.1.8, were evaluated for their ability to compete with CD33 ligand for binding to CD33 using a red blood cell (RBC) solid adhesion assay, according to standard protocols (Kelm, et al. Current Biology, 1994). Red blood cells are highly decorated with glycoproteins containing sialic acids; therefore the ability of an antibody to block RBC binding to immobilized CD33 was used to determine ligand interference. Briefly, 96-well Immunolon plates were coated overnight with 5 μg/mL CD33-Fc, then were washed with PBS and blocked for one hour with binding buffer (PBS containing 0.25% BSA and 1 mM CaCl₂)). CD33 antibodies were added and incubated for one hour at room temperature with gentle rocking. After removal of unbound antibody, RBCs were added to each well at 3.0×10⁶ cells/mL and incubated at room temperature for one hour. Unbound RBCs were then carefully removed by washing three times with PBS, after which water was added to each well to induce hypotonic lysis of bound RBCs. The plate was transferred to −80° C. for 10 minutes, followed by 37° C. for 15 minutes. Quantification of bound RBCs was measured as peroxidase activity by adding TMB, followed by the addition of 2N sulfuric acid to stop the reaction. Signal was detected at 450 nm. Data was calculated as a percentage of RBC binding to plate-bound CD33-Fc in the absence of antibody.

The target in assay [14] is T1, human CD33 on primary human …. Briefly: cell-based or functional assay. This is another data set of the same source.
Assay [15] shares this target. Briefly: cell-based or functional assay. The source holds these as a separate data set.

Substitutions are numbered along the chain they refer to. Read-outs that look alike come from different tables or passages of the source.

T1 sequence (P20138 18-364): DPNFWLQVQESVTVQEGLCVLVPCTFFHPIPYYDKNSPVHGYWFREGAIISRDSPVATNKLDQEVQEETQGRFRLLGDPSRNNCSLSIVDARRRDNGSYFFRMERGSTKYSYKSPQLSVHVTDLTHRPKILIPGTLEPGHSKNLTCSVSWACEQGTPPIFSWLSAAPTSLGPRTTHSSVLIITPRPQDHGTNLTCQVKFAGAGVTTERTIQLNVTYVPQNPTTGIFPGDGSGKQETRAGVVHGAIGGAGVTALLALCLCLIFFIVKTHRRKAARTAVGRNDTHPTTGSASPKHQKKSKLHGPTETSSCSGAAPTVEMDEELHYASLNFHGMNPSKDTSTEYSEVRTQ

B1: AB-H14 (antibody, V domains shown)
VH: QVQLVQSGAEVKKPGASVKVSCKASGYTFTDYNLHWVRQAPGQGLEWIGFIYPSNGITGYAQKFQGRVTMTVDTSTSTVYMELSSLRSEDTAVYYCARSTVDYFDYWGQGTLVTVSS
VL: DIQMTQSPSSLSASVGDRVTITCRASQSVSTSTYSYMHWYQQKPGKAPKLLIKYASNLESGVPSRFSGSGSGTDFTLTISSLQPEDFATYYCQHSWEIPLTFGQGTKLEIK
notes: Humanized variant of murine 2F5.1
Take B1: the “Receptor downregulation (EC50)” value in assay [1] amounted to 0.042 nM. In assay [2], the “Maximal Downregulation (% CD33 remaining)” value was 15% and the “Receptor downregulation (EC50)” value was 0.151 nM. This molecule came in with an equilibrium dissociation constant (Kd) in the assay with human CD33 [3] of 3.42 nM. Moreover, in the assay with human CD33 [4], the Kd was 2.91 nM, the koff is 0.00115 s⁻¹ and the kon was 397000 M⁻¹ s⁻¹.

B2: AB-H64 (antibody, V domains shown)
VH: B1 VH with V20I, V68A, M70L, T74N, V79A, V113L
VL: DIVLTQSPDSLAVSLGERATINCRASQSVSTSTYSYMHWYQQKPGQPPKLLIKYASNLESGVPDRFSGSGSGTDFTLTISSLQAEDVAVYYCQHSWEIPLTFGQGTKLEIK
notes: Humanized variant of murine 2F5.1; also called parental humanized antibody
With B2, the “Maximal Downregulation (% CD33 remaining)” value in [5] and in assay [7] was 22.4% throughout. Also, the “Receptor downregulation (EC50)” value amounted to 0.029 nM in assay [5], 0.0137 nM in [1], 0.0366 nM in [6] and 0.029 nM in assay [7]. Also, the “Fold Change to Chimeric Ab” value in the assay with human CD33 [8] and in the assay with human CD33 [9] was 0.76 fold throughout. Further, the Kd with human CD33 [8] was 2.15 nM; in the assay with human CD33 [9], 2.15 nM; with human CD33 [3], 4.08 nM; with human CD33 [10], 2.86 nM. In addition, the koff with human CD33 [8] and in the assay with human CD33 [9] was 0.00221 s⁻¹ throughout. For the same molecule, the kon in the assay with human CD33 [8] and in the assay with human CD33 [9] was 1.03e+06 M⁻¹ s⁻¹ each time.

B3: AB-64.1 (antibody, V domains shown)
VH: B1 VH with V20I, V68A, M70L, T74N, V79A, T100D, V113L
VL: B2 VL
For the molecule B3, the “Receptor downregulation (EC50)” value in assay [6] came out at 0.0185 nM. For the same molecule, in assay [7], the “Maximal Downregulation (% CD33 remaining)” value came out at 27.3% and the “Receptor downregulation (EC50)” value was 0.0154 nM. The “Receptor downregulation (% remaining at 0.16 µg/mL antibody)” value in [11] is 37.2%. Besides, in the assay with human CD33 [9], the “Fold Change to AB-H64” value was determined as 20.4 fold, the “Fold Change to Chimeric Ab” value is 15.4 fold, binding was characterised by a dissociation constant (Kd) of 0.105 nM and the koff came out at 0.000485 s⁻¹. For the same molecule, the kon with human CD33 [9] turned out to be 4.61e+06 M⁻¹ s⁻¹. For the same molecule, in the assay with human CD33 [10], the “Fold affinity improvement over parental Ab (AB-H64)” value turned out to be 3.23 fold and the Kd worked out at 0.885 nM. Besides, the Kd with human CD33 [12] stood at 0.499 nM. For the same molecule, the EC50 with human CD33 [13] is 0.71 nM.

B4: AB-64.1.2 (antibody, V domains shown)
VH: B1 VH with V20I, G56R, V68A, M70L, T74N, V79A, T100D, V113L
VL: B2 VL
notes: Variant of AB-64.1
For B4, in assay [14], the “fold increase in potency in decreasing cell surface CD33, against AB-H64” value was 1.5 fold and the “fold increase in potency in decreasing cell surface CD33, against Chimeric Ab” value amounted to 4.6 fold. In addition, in assay [7], the “Maximal Downregulation (% CD33 remaining)” value was 24.8% and the “Receptor downregulation (EC50)” value was 0.0189 nM. Also, in assay [11], the “Receptor downregulation (% remaining at 0.16 µg/mL antibody)” value stood at 32.4%. In addition, in the assay with human CD33 [9], the “Fold Change to AB-H64” value came to 11.6 fold, the “Fold Change to Chimeric Ab” value is 8.8 fold, the Kd is 0.185 nM and the koff was found to be 0.000507 s⁻¹. In the assay with human CD33 [9], this molecule returned an on-rate constant (kon) of 2.74e+06 M⁻¹ s⁻¹. This molecule also returned a Kd in the assay with human CD33 [12] of 0.902 nM. In the assay with human CD33 [13], this molecule registered an EC50 of 0.55 nM.

B5: AB-64.1.8 (antibody, V domains shown)
VH: B1 VH with V20I, G56Q, V68A, M70L, T74N, T76A, V79A, T100D, V113L
VL: B2 VL
notes: Variant of AB-64.1
Take B5: in assay [7], the “Maximal Downregulation (% CD33 remaining)” value was found to be 30.1% and the “Receptor downregulation (EC50)” value was determined as 0.0282 nM. Besides, the “Receptor downregulation (% remaining at 0.16 µg/mL antibody)” value in [11] stood at 32.7%. Moreover, in the assay with human CD33 [9], the “Fold Change to AB-H64” value is 12.3 fold, the “Fold Change to Chimeric Ab” value was found to be 9.29 fold, the Kd stood at 0.175 nM and the koff came to 0.000634 s⁻¹. The same molecule returned an on-rate constant (kon) with human CD33 [9] of 3.62e+06 M⁻¹ s⁻¹. Further, the affinity with human CD33 [12], expressed as Kd, was 0.802 nM. The molecule further registered an EC50 in the assay with human CD33 [13] of 0.62 nM.

B6: AB-H63 (antibody, V domains shown)
VH: B1 VH
VL: B2 VL
notes: as for B1
On to B6, for which the “Maximal Downregulation (% CD33 remaining)” value in assay [5] is 20.3%; in assay [15], 16.1%. Moreover, the “Receptor downregulation (EC50)” value came to 0.032 nM in [5], 0.0041 nM in assay [1] and 0.0726 nM in assay [15]. The “Fold Change to Chimeric Ab” value with human CD33 [8] was determined as 0.46 fold. Also, the Kd with human CD33 [8] is 3.53 nM; with human CD33 [3] it was 4.07 nM; in the assay with human CD33 [4] it was 2.72 nM. The off-rate constant (koff) with human CD33 [8] stood at 0.00263 s⁻¹; in the assay with human CD33 [4], 0.00168 s⁻¹. The on-rate (kon) came to 744000 M⁻¹ s⁻¹ with human CD33 [8] and 615000 M⁻¹ s⁻¹ in the assay with human CD33 [4].

B7: Chimeric Ab (antibody, V domains shown)
VH: EVQLQQSGPELVKPGASVKISCKASGYTFTDYNLHWVKLSHGKSLEWIGFIYPSNGITGYNQKFKNKATLTVDNSSSTAYMELRSLTSEDSAVYYCARSTVDYFDYWGQGTTLTVSS
VL: DIVLTQSPASLAVSLGQRATMSCRASQSVSTSTYSYMHWYQQKPGQPPKLLIKYASNLESGVPARFSGSGSGTDFTLNIHPVEEEDTATYYCQHSWEIPLTFGAGTKLELK
notes: Chimeric antibody with the variable regions of murine 2F5.1; also called parental antibody; comparator antibody
As for B7, the “Maximal Downregulation (% CD33 remaining)” value in [5] and in assay [7] was 24.1% in each case. Besides, the “Receptor downregulation (EC50)” value in assay [5] amounted to 0.0869 nM; in assay [1], 0.0743 nM; in assay [7], 0.0869 nM. Besides, the Kd with human CD33 [8] is 1.63 nM; in the assay with human CD33 [9], 1.63 nM; with human CD33 [3], 5.22 nM. The koff with human CD33 [8] and with human CD33 [9] was 0.00162 s⁻¹ each time. For the same molecule, the kon with human CD33 [8] and in the assay with human CD33 [9] was 995000 M⁻¹ s⁻¹ each time.

What is called Kd is a measure of binding affinity in units of concentration. High values mean weaker binding, low ones tighter binding. The term koff denotes the first-order rate constant of dissociation. A lower koff goes with slow dissociation. Usually kon stands for the second-order rate constant of association. The low end stands for slower complex formation, the high end for faster complex formation. As a reminder, the EC50 is the concentration needed to bring the measured effect to its halfway point. A low value points to greater potency.

Source of the values: patent publication US20210139581A1 (Alector, published 2021).
